# Assay: yeast display, Sf9 membrane polyspecificity reagent, FACS + sequencing; frameworks hold sequencing errors
# Summary of the method: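 Nanobodies came from a synthetic yeast display library in Saccharomyces cerevisiae BJ5465, induced with galactose for 36–48 hours and stained for 1 hour at 4 °C with 10% biotinylated, detergent-solubilized Sf9 membrane reagent. Cells were enriched on streptavidin microbeads and then FACS-sorted, with low and high (top ~1%) gates set on anti-HA fluorescence for expression and streptavidin fluorescence for reagent binding. Each polyreactivity label reflects the gate a clone came from. Genes were amplified by colony PCR, sequenced by MiSeq 2 × 250 and filtered by CDR length.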
row,Sequence,polyreactivity (PSR sort gate)
1,QVQLVESGGGLVQAGGSLRLSCAASGRIVWSYGMGWYRQAPGKERELVAAITNTGDGTYYADSVKGRFTISRDNAKNTVYLQMNSLKPEDTAVYYCAVDYRGYWYWEYDYWGQGTQVTVSS,high polyreactivity
2,QVQLVESGGGLVQAGGSLRLSCAASGRIWVNAMAWYRQAPRKEMEFVAAISTSSASTYYADSVKGRFTISRDNAKNTVYLQMNSLKPVDTAVYYCAARYLGKKFYYWGQGTQVTVSS,high polyreactivity
3,QVQLVESGGGLVQAGGSLRLSCAASGRIYAYYPMGWYRQAPGKERELVAAISRGGGSTSYADSVKGRFTISRDNAKNTVYLQMNSLKPEDTAVYYCAADTRSYLVFTRYFRAYRRYDYWGQGTQVTVSS,low polyreactivity
4,QVQLVESGGGLVQAGGSLRLSCAASGRIYGGNAKGWYRQAPGKEREFVAAITWRGGTTYYADSVKGRFTISRDNAKNTVYLQMNSLKPEDTAVYYCNALRYTRNTGYDYWGQGTQVTVSS,high polyreactivity
5,QVQLVESGGGLVQAGGSLRLSCAASGRIYGYTMGWYRQAPGKERELVAAITRNGGSTYYADSVKGRFTISRDNSKNSVYLQMNSLKPEDTAVYYCAARNAFGTYYYWGQGTQVTVSS,high polyreactivity
6,QVQLVESGGGLVQAGGSLRLSCAASGRIYKYYAMGWYRQAPGKETELVAAISISGTNTYYADSVKGRFTISRDNAKNTVYLQMNSLKPEDTAVFYCAARQYTRGYEREYWGQGTQVTVSS,high polyreactivity
7,QVQLVESGGGLVQAGGSLRLSCAASGRIYVPNAMGWYRQAPGKERELVAAITSDGRTNDADSVKGRFTISRDNAKNTVYVQMNSLKPEDTAVYYSNAPVVTFGGYQDDVEYGYWGQGTQVTVSS,low polyreactivity
8,QVQLVESGGGLVQAGGSLRLSCAASGRIYYAYTMGWYIQAPGKERELVAAISGSGSTYYADSVKGRFSISRDNAKNTVYLQMNSLKPEDTAVYYCAADVTGGRKYDYWGQGTQVTVSS,low polyreactivity
9,QVQLVESGGGLVQAGGSLRLSCAASGRIYYRNAMGWYRQAPGKERELVAAISWRGGTTYYADSVKGRFTISRDNAKNSVYLQMNSLKPEYTAVYYCAADRRKAQAKPVHYSWGPQRYGYGYWGQGTQVTVSS,high polyreactivity
10,QVQLVESGGGLVQAGGSLRLSCAASGRIYYSNDMRWYRQAPGKERELVAAISRRDGSTYYADSVKGRFTISRDNAKNTVYLQMNSLKPEDTAVYYCRYYSYRYGYWGQGTQVTVSS,high polyreactivity
11,QVQLVESGGGLVQAGGSLRLSCAASGRKFNGYDMGWYRQAPGKERELVAPINNSGGTDNTYYADSVKGRFTISRDNAKNTVYLQMNSLKPEDTAVYYCNAGPVWDQWWLYYYWGQGTQVTVSS,high polyreactivity
12,QVQLVESGGGLVQAGGSLRLSCAASGRLFIIYAMGWYRQAPGKERELVAAINRGATTNYADSVKGRFTISRDNAKYTVYLQMNSLKPEDTAVYYCAARGVAKLRRVGYWGQGTQVTVSS,high polyreactivity
13,QVQLVESGGGLVQAGGSLRLSCAASGRLFTGNAMGWYRQAPGKERELVADINRTGGSPYYADSVKGRFTISRDNAKNTVYVQLNSLKPVDTAVYDCAAYVPWGWRYGYNYWGQGTQVTVSS,high polyreactivity
14,QVQLVESGGGLVQAGGSLRLSCAASGRLFVYNAMGWYRQAPGKEREFVATITSSGGRTYYADSVKGRFTISRDNAKNTVYLQMNSLKPEDSAVYYCAARPQNNGRNPVYRYNYWGQGTQVTVSS,high polyreactivity
15,QVQLVESGGGLVQAGGSLRLSCAASGRLFVYNAMGWYRQAPGKERELVASISWSGDSTYADSVKGRFTISRDNAKNTVYIQMNSLKPEDTAVYYCAAYSQADYQNMDYWGQGTQVTVSS,low polyreactivity
16,QVQLVESGGGLVQAGGSLRLSCAASGRLFYQYAMGWSRQAPGKERELVAAISRSGGSTSYADSVKGRFTISRDNAKNTVYLQMNSLKPEDTAVYYCNARRWWDFQGYDYWGQGTQVTVSS,high polyreactivity
17,QVQLVESGGGLVQAGGSLRLSCAASGRLMGWYRQAPGKERELVAAIRVSSGSTYYADSVKGRFTISRDNAKNTVYLQMNSLKPEDTAVYYCAKYVYLGYVRQVPYFRYDYWGQGTQVTVSS,high polyreactivity
18,QVQLVESGGGLVQAGGSLRLSCAASGRLSVFYTMGWYRQAPGKERELVAVSRTSGGRTNYADSVKGRFTISRDNAKNTVYIEMNCLKPEDSGDYYGNAEFTYRWGYWQVYLLDYWGQGTQVTVSS,low polyreactivity
19,QVQLVESGGGLVQAGGSLRLSCAASGRMFFRYAMGCYRQAPGKEREFVATITWSGGRTHYADSVKGRFTISRDNAKNTVYLQMNSLKPEDTAVYYCAASYHRYAFDYWGQGTQVTVSS,high polyreactivity
20,QVQLVESGGGLVQAGGSLRLSCAASGRMFKYSDMGWYRQAPGKERALVAGISISGSTSYADSVKGRFTISRDNAKNTVYLQMNSLKPEDTAVYYCAADSRGGYPSLYEYDYWGQGTQETVSS,low polyreactivity
21,QVQLVESGGGLVQAGGSLRLSCAASGRMFTYYAMGGYRQAPGKERELVAAINRGVVTTYYADSVKGRFTISRDHAKNTVDLQMNSLKPEDTAVYYCAADWFAANYYVNPVSALDYWGQGTQVTVSS,low polyreactivity
22,QVQLVESGGGLVQAGGSLRLSCAASGRMGWYRQAPGKERELVAGITSSGRTYYADSVKGRFTISRDNAKNTVYLQMNSLKPEDTAVYYCATYGYWGQGTQVTVSS,high polyreactivity

row,Sequence,polyreactivity (PSR sort gate)
1,QVQLVESGGGLVQAGGSLRLSCAASGRNFALNAMGWYRQAPGKERELLATIRWRGGSTYYADSVKGRFTISRDNAKKTVYLQMNSLKPEDTAVYYCATGPRPYPYDYCGQGTQVTVSS,high polyreactivity
2,QVQLVESGGGLVQAGGSLRLSCAASGRNFCNYAMGWYIQAPGKERELVAVIRFSDGSTYYADSVKGRFTISRDNAKNTVYLQMNSLKPEDTAVYYCAAKGPRRWGSGFDYWGQGTQVTVSS,low polyreactivity
3,QVQLVESGGGLVQAGGSLRLSCAASGRNFDPYAMGWYRQAPGKERELVASISRGGSTYADSVKGRFTISRDNAKNTVYLQMNRLKPEVTAVYYCNTSLYTEGDAMDYWGQGTQVTVSS,low polyreactivity
4,QVQLVESGGGLVQAGGSLRLSCAASGRNFGVYAMGWYRQAPGKERELVARIRGSGASTYYADSVKGRFTISRDNAKNTVYLQMNSLKPEDTAVYYCAAVTVAGYDYWGQGTQVTVSS,high polyreactivity
5,QVQLVESGGGLVQAGGSLRLSCAASGRNFILNAMGWYRQAPGKERELVAAISWSGGSTYYADSVKGRFTISRDNAKNTVYLQMNSLKPEDTAVYYCAAETYAYLFHTYDYWGQGTQVTVSS,low polyreactivity
6,QVQLVESGGGLVQAGGSLRLSCAASGRNFLIYAMGWYRQAPRKERELVADISTSGGTTYYADSVKGRFTISRDNAKNTVYLQMNSLKPADTAVYYCAAGSHYWKYYSWGQGTQVTVSS,high polyreactivity
7,QVQLVESGGGLVQAGGSLRLSCAASGRNFLYNAMGWYRQAPGKERELVAVISKRGGRTYYADSVKGRFTISRDNAKNTVYLQMNSLKPEDTAVYYCAAAYVTPPGPLRYNEYYWGQGTQVTVSS,high polyreactivity
8,QVQLVESGGGLVQAGGSLRLSCAASGRNFRWYAMGWYRQAPGKERELVAAITRGDITNYADSVKGRFTISRDNAKKTVYLQMNSLKPEDTAVYYCNAQWYDIYDYWGQGTQVTVSS,high polyreactivity
9,QVQLVESGGGLVQAGGSLRLSCAASGRNFSSYAMGWYIQAPGKERELVAAITSGGRTKYADSVKGRFTISRDNAKNTVYLQMNSLKPEDTAVYYCAARNHWVRYLRYDYWGQGTQVTVSS,high polyreactivity
10,QVQLVESGGGLVQAGGSLRLSCAASGRNFSYYAMGWYRQAPGKERELVAFISSGGNTYYADSVKGRFTISRDNAKNTVYLPMNSLKPEDTAVYYSGADPNAQGYPQVNYWGQGTQVTVSS,high polyreactivity
11,QVQLVESGGGLVQAGGSLRLSCAASGRNFTSNAMGWYRQAPGKERELVAAITQSGGSTYYADSVKGRFTISRDNAKNTVYLQMNSLKPVDTAVYYCNAETTGRTEYNYWGQGTQVTVSS,low polyreactivity
12,QVQLVESGGGLVQAGGSLRLSCAASGRNFYGYTMGWYRQAPGKERELVAAITSGGSTYYADSVKGRFTISRDNAKNTVYLQMNSLKPEDTAVYYCNAKYNGYYRRFSEYDYWGQGTQVTVSS,high polyreactivity
13,QVQLVESGGGLVQAGGSLRLSCAASGRNFYHYAMGWYRQAPGKEREFVAAISVSGGRTYYADSVKGRFTISRDNAKNTVYLQMNSLKPEDTAVYYCAAEPEWPYGRFDYWGQGTQVTVSS,high polyreactivity
14,QVQLVESGGGLVQAGGSLRLSCAASGRNFYYYAMGWYRQAPGKEREFVARNRSSGGSTYADSVKGRFTISRDNAKNTVYLQMNSLKPEDTAVYYCARDGYTAVEYDYWGQGTQVTVSS,low polyreactivity
15,QVQLVESGGGLVQAGGSLRLSCAASGRNIYTNAMGWYRQAPGKERELVAAINRSGGITYYADSVKGRFTISRDNAKNTVDLQMNSLKPEDTAVYYCAKDYSWASYNHDYWGQGTQVTVSS,low polyreactivity
16,QVQLVESGGGLVQAGGSLRLSCAASGRNLPSYAMGWYRQAPGKERELVAAISGSGGRTYYSDSVKGRFTISRDNAKNTVYLQMNSLKQEDTAVYYCAARQDDYGKINYYWGQGTQVTVSS,high polyreactivity
17,QVQLVESGGGLVQAGGSLRLSCAASGRNSPSYAMGWYRQAPGKERELVAAISKRGGTTYYADSVKGRFTISRDNAKNTVYLQMNSLKPEDTAVYYCSARDYSHPTDDNYWGQRTQVTVSS,high polyreactivity
18,QVQLVESGGGLVQAGGSLRLSCAASGRNYVYNAMGRYRQAPGKETELVAAITSSGGSTYYADSVKGRFTISRDNAKNSVDLQMNSLKPEDTAVYYCAADVQPDTRSTPEMDYWGQGTQVTVSS,low polyreactivity
19,QVQLVESGGGLVQAGGSLRLSCAASGRPFISYAMGWYRQAPGKERELVAAISSSGGSTYYADSVKGRFTMSRDTAKNTVYLQMNSLKPEDTAVYYCNAAKVRRDPAWRLLDYWGQGTQVTVSS,low polyreactivity
20,QVQLVESGGGLVQAGGSLRLSCAASGRPFKRYAMGWYRQAPGKEREVVAAITASGGNTYYADSVKGRFTISRDNAKNTVYLQMNSLKPEDTAVYYCARGSYSGGSKYNYWGQGTQVTVSS,high polyreactivity
21,QVQLVESGGGLVQAGGSLRLSCAASGRPFPFNAMGWSRQAPGKDRELVAAISGRGGSTYYADSVKGRFTISRDNATNTGSLQRNSQKPEDTAVDYCAARLPWSYYRTQGYNSWGQGTQGTVSS,high polyreactivity

# Reference: the nanobody polyreactivity screen of Harvey et al. (2022)
